Laboratory results published in US7575909B2, “Oxidoreductase from pichia capsulata” (IEP GmbH, priority 2003, dated 2009).

Key:
[1] = Enzyme activity on expression of the oxidoreductase in E. coli; format: biochemical, Escherichia coli
From the text: Competent Escherichia coli StarBL21 (De3) cells (Invitrogen) were transformed with the expression construct pET21-PC#10 coding for the oxidoreductase according to the invention.
The transformed strain was cultivated in an LB medium (1% tryptone, 0.5% yeast extract, 1% NaCl) with ampicillin (50 ig/ml) until an optical density, measured at 500 nm, of 0.5 was reached. The production of the recombinant oxidoreductase protein was initiated by adding isopropylthiogalactoside (IPTG) at a final concentration of 1 mM. The induction batch was incubated for another 15 h at 25° C. and 220 rpm.
Competent Escherichia coli RB791 cells were transformed with the expression construct pQE30-PC#12 coding for the oxidoreductase according to the invention.
The transformed strain was cultivated in an LB medium (1% tryptone, 0.5% yeast extract, 1% NaCl) with ampicillin (50 ig/ml) until an optical density, measured at 500 nm, of 0.5 was reached. The production of the recombinant oxidoreductase protein was initiated by adding IPTG at a final concentration of 0.1 mM. The induction batch was incubated for another 15 hours at 25° C. and 220 rpm. The enzyme activity achieved amounted to approx. 1000 U/g of wet cell mass.

[2] = Temperature stability of the oxidoreductase; format: physicochemical; conditions: after 30 min
Method: The temperature stability was determined for the range of 15° C. to 70° C. in a manner analogous to that described under Example 5.2. […] Also in this case, the measured value obtained immediately after diluting the purified oxidoreductase in a potassium phosphate buffer 50 mM pH=7.0 was used as the initial value. Said value was set as a 100% value also in this example.

[3] = pH stability of the recombinant oxidoreductase; format: physicochemical; conditions: pH values above 9.0 and below 5.0
Method: The determination of the activity of the recombinant oxidoreductase was examined by storage in the buffer systems mentioned in Table 3. For this purpose, the various buffers (50 mM) were prepared in a pH range of 4 to 11, and the oxidoreductase produced according to Example 4 was diluted therewith. After 30, 60 and 300 min of incubation, 10 μl were removed from the batch and used in the activity test according to Example 1.
Thereby, the initial value is the measured value which was obtained immediately after diluting (1:20) the enzyme in the potassium phosphate buffer 50 mM pH=7.0. Under the given conditions, said value corresponded to an extinction variation of approx. 0.70/min and was set as a 100% value, and all the following measured values were set in relation to said value.

[4] = Temperature optimum of the oxidoreductase; format: biochemical
Method: In order to determine the optimum test temperature, the enzyme activity was measured in the standard measuring batch in a temperature range of 15° C. to 70° C.

[5] = Solvent stability of the oxidoreductase; format: physicochemical; conditions: RT
Method: The enzyme stability of the oxidoreductase from P. capsulata was examined in the presence of organic solvents. For this purpose, the oxidoreductase was in each case diluted 1:20 with the indicated solvent mixtures (in case of water-miscible organic solvents) and was incubated at room temperature (20° C. to 24° C.; RT). Subsequently, 10 μl of the enzyme solution were used in the standard test batch. Also in this case, the initial value was equalled to 100% after dilution in the buffer (potassium phosphate buffer (KPP) 100 mM, pH=7.0), and all the other values were set in relation to said initial value.
In case of water-immiscible organic solvents, the dilution likewise took place in a potassium phosphate buffer, the same volume of an organic solvent was added to the batch and the batch was incubated at RT in a thermomixer at 170 rpm. The activity was measured from the aqueous phase.

B1: oxidoreductase from Pichia capsulata: NADH-dependent (S)-specific zinc-dependent carbonyl reductase from Pichia capsulata, amino acid sequence SEQ ID NO: 9, 341 amino acids (protein, listed as Pichia capsulata)
chain: MSALSKTQAGYIFKKGAGHIVKAEVPIPKPTGAQSLLRVKAAGMCHSDLHVIGETLEVPTDGYVLGHEIAGELVEIGDSVNPEVFKVGGRYAVHGLNSCGSCEMCRTGHDNDCTGNESKWYGLGISGGYQQYLLVPNSHHLLPIPDNVSYEVAAATSDAVLTPYHAIKNSGVTPSSKVLMFGLGGLGSNALQILKAFGAYVVAVDVKPASKAIADEFKADEFYTDISQSSWKPASFDYCFDFVSLQVTFDICQKYIKSHGTIFPVGLGSSKLTFDLGNLALREVKIVGNFWGTSQEQIEAMELVSSGRVKPQVHTTELENLPESLEKLEEGKINGRLVMLP
Question: With B1 as the molecule, how does the enzyme activity achieved ([1]; E. coli RB791, construct pQE30-PC#12, 0.1 mM IPTG) read?
Answer: approx. 1000 U/g of wet cell mass

Question: And the enzyme activity achieved ([1]; E. coli StarBL21 (De3), construct pET21-PC#10, 1 mM IPTG)?
Answer: approx. 6000 U/g of wet cell mass

Question: And the “enzyme activity after incubation at 55° C.” value [2]?
Answer: can no longer be detected

Question: What about the “effect of incubation at extreme pH” value [3] of the same molecule?
Answer: immediate deactivation

Question: What about the “Activity in U/ml undiluted enzyme” value ([4]; 15 ° C.) of the same molecule?
Answer: 73 U/ml

Question: And the “Activity in U/ml undiluted enzyme” value ([4]; 20 ° C.)?
Answer: 83 U/ml

Question: And the “Activity in U/ml undiluted enzyme” value ([4]; 25 ° C.)?
Answer: 128 U/ml

Question: What about the “Activity in U/ml undiluted enzyme” value ([4]; 30 ° C.) of the same molecule?
Answer: 135 U/ml

Question: And the “Activity in U/ml undiluted enzyme” value ([4]; 35 ° C.)?
Answer: 163 U/ml

Question: What about the “Activity in U/ml undiluted enzyme” value ([4]; 40 ° C.) of the same molecule?
Answer: 170 U/ml

Question: What about the “Activity in U/ml undiluted enzyme” value ([4]; 45 ° C.) of the same molecule?
Answer: 176 U/ml

Question: And the “Activity in U/ml undiluted enzyme” value ([4]; 50 ° C.)?
Answer: 122 U/ml

Question: And the “Activity in U/ml undiluted enzyme” value ([4]; 55 ° C.)?
Answer: 45 U/ml

Question: What about the “Activity in U/ml undiluted enzyme” value ([4]; 60 ° C.) of the same molecule?
Answer: 0 U/ml

Question: And the “Activity in U/ml undiluted enzyme” value ([4]; 65 ° C.)?
Answer: 0 U/ml

Question: And the “Activity in U/ml undiluted enzyme” value ([4]; 70 ° C.)?
Answer: 0 U/ml

Question: And the “optimum temperature (maximum activity)” value ([4]; standard measuring batch, 15° C. to 70° C., listed as recombinant oxidoreductase from P. capsulata)?
Answer: 45 °C

Question: What about the Activity ([5]; 5% EtOH, 8 h) of the same molecule?
Answer: 77%

Question: What about the Activity ([5]; 5% EtOH, 24 h) of the same molecule?
Answer: 77%

Question: And the Activity ([5]; 5% isopropanol, 8 h)?
Answer: 77%

Question: And the Activity ([5]; 5% isopropanol, 24 h)?
Answer: 77%

Question: What about the Activity ([5]; 10% DSMO, 8 h) of the same molecule?
Answer: 42%

Question: And the Activity ([5]; 10% DSMO, 24 h)?
Answer: 45%

Question: What about the Activity ([5]; 10% EtOH, 8 h) of the same molecule?
Answer: 77%

Question: What about the Activity ([5]; 10% EtOH, 24 h) of the same molecule?
Answer: 77%

Question: And the Activity ([5]; 10% isopropanol, 8 h)?
Answer: 72%

Question: What about the Activity ([5]; 10% isopropanol, 24 h) of the same molecule?
Answer: 72%

Question: And the Activity ([5]; 20% DSMO, 8 h)?
Answer: 30%

Question: What about the Activity ([5]; 20% DSMO, 24 h) of the same molecule?
Answer: 30%

Question: And the Activity ([5]; 20% EtOH, 8 h)?
Answer: 100%

Question: And the Activity ([5]; 20% EtOH, 24 h)?
Answer: 100%

Question: And the Activity ([5]; 20% isopropanol, 8 h)?
Answer: 46%

Question: What about the Activity ([5]; 20% isopropanol, 24 h) of the same molecule?
Answer: 46%

Question: And the Activity ([5]; 30% EtOH, 8 h)?
Answer: 64%

Question: What about the Activity ([5]; 30% EtOH, 24 h) of the same molecule?
Answer: 64%

Question: And the Activity ([5]; 30% isopropanol, 8 h)?
Answer: 18%

Question: What about the Activity ([5]; 30% isopropanol, 24 h) of the same molecule?
Answer: 18%

Question: What about the Activity ([5]; Buffer KPP 100 mM pH = 7, 1 mM MgCl2, 8 h) of the same molecule?
Answer: 100%

Question: And the Activity ([5]; Buffer KPP 100 mM pH = 7, 1 mM MgCl2, 24 h)?
Answer: 100%

Question: What about the Activity ([5]; butyl acetate (same volume, two-phase), 8 h) of the same molecule?
Answer: 53%

Question: What about the Activity ([5]; butyl acetate (same volume, two-phase), 24 h) of the same molecule?
Answer: 28%

Question: And the Activity ([5]; chloroform (same volume, two-phase), 8 h)?
Answer: 51%

Question: And the Activity ([5]; chloroform (same volume, two-phase), 24 h)?
Answer: 0%

Question: What about the Activity ([5]; cyclohexane (same volume, two-phase), 8 h) of the same molecule?
Answer: 85%

Question: And the Activity ([5]; cyclohexane (same volume, two-phase), 24 h)?
Answer: 70%

Question: And the Activity ([5]; diethyl ether (same volume, two-phase), 8 h)?
Answer: 100%

Question: And the Activity ([5]; diethyl ether (same volume, two-phase), 24 h)?
Answer: 100%

Question: What about the Activity ([5]; diisopropyl ether (same volume, two-phase), 8 h) of the same molecule?
Answer: 100%

Question: And the Activity ([5]; diisopropyl ether (same volume, two-phase), 24 h)?
Answer: 100%

Question: And the Activity ([5]; ethyl acetate (same volume, two-phase), 8 h)?
Answer: 2%

Question: And the Activity ([5]; ethyl acetate (same volume, two-phase), 24 h)?
Answer: 0%

Question: And the Activity ([5]; heptane (same volume, two-phase), 8 h)?
Answer: 74%

Question: And the Activity ([5]; heptane (same volume, two-phase), 24 h)?
Answer: 43%

Question: What about the Activity ([5]; hexane (same volume, two-phase), 8 h) of the same molecule?
Answer: 60%

Question: And the Activity ([5]; hexane (same volume, two-phase), 24 h)?
Answer: 20%

Question: What about the Activity ([5]; methyl tert-butyl ether (same volume, two-phase), 8 h) of the same molecule?
Answer: 100%

Question: And the Activity ([5]; methyl tert-butyl ether (same volume, two-phase), 24 h)?
Answer: 100%
